The labels stand for the following.
B1: ADI-14510 (antibody, V domains shown)
VH: QVQLQQWGAEVKKPGSSVKVSCKASGVALSSVAISWVRQAPGQGLEWMGGILPGFDKVRFAQEFENRATLTADTARDIAYMELSGLRSDDTAVYYCAIIDPQDCTSASCFWVNWLDPWGQGTLVTVSS
VL: ETTLTQSPGTLTVSPGERATLSCRASQSIIRNNLAWYQQKPGQAPRLLIYAASNRATDIPDRFSGSGSGTDFTLTISRLEAQDFAVYFCQQYGTSPITFGQGTKVEIK
notes: full-length IgG (yeast-expressed); also called Antibody Number 71; Ab# 71
B2: ADI-14524 (antibody, V domains shown)
VH: EVQLVESGGGLVQPGGSLRLSCAASGFSFSDYSMNWVRQAPGKGLEWVSYITPSSRNKFYADSVRGRFTISRDNAENSLYLQMNSLRVEDTAVYYCVRSLHWGAAIERWDVWGQGTTVTVSS
VL: EIVLTQSPGTLSLSPGERATLSCRASQSISSSFFAWYQQTPGQAPRLLMYATSSRATGIPDRFSGSGSGTDFTLTISRVEPEDFAVYYCQQSGSSPYTFGQGTKVEIK
notes: full-length IgG (yeast-expressed); also called Antibody Number 84; Ab# 84
B3: ADI-14500 (antibody, V domains shown)
VH: EVQLLESGGGLVKPGGSLRLSCAASGFIFNNAWMTWVRQAPGRGLEWVGRIKTNADGGTADYSTPVKGRFAISRDDSTNTLYLQMNSLKTEDTAVYYCTTGPPYKYSDSTGYSVVDYWGQGTLVTVSS
VL: SYELTQPPSASGTPGQRVTISCSGSSSNIGSNYVYWYQQLPGTAPKLLIYSTNQRPSGVPDRFSGSQSGTSASLAISGLRSEDEADYYCAAWDDRLSGPVFGGGTQLTVL
notes: full-length IgG (yeast-expressed); also called Antibody Number 61; Ab# 61
B4: ADI-14439 (antibody, V domains shown)
VH: QVQLVQSGAEVKKPGSSVRVSCRASGVTLTTVAVNWVRQVPGQGPEWIGGILVGLGKVRLAQKFENRATLRADTSSNTAYMELSGLRFEDTAVYYCAIIDPQDCTAASCFWVNWLDPWGQGTLVTVSS
VL: EIVLTQSPGTLTLSPGETATLSCRASQSVLSGYLAWYQQKPGQAPRLLIYAASTRATDIPARFTGSGSATDFTLTISRLEPQDFAVYYCQQYGSAPITFGQGTRLEIK
notes: full-length IgG (yeast-expressed); also called Antibody Number 2; Ab# 2
B5: ADI-14446 (antibody, V domains shown)
VH: QVQLVQSGAEVKKPGSSVKVSCEASGDTFTSYAVIWVRQTPGQGLEFMGSIIPIFQTINYAPKFQGRVTLSADGSTSTVFMELRNLRSEDTAIYFCATKRYCTSPSCHGLWYFNLWGRGTMVTVSS
VL: ETTLTQSPISLSVTPGEPASISCRSSKSLLDSDDGNTYLDWYLQKPGQSPQILIYMLSYRASGVPDRFSGSGSGTDFTLKISRVEAEDVGVYYCMQRIEYPYTFGQGTKVEIK
notes: full-length IgG (yeast-expressed); also called Antibody Number 9; Ab# 9
B6: ADI-14452 (antibody, V domains shown)
VH: B5 VH with T40A, F47W, S77R, F80Y, R84G, N85S, M121L
VL: B5 VL with E1D, T2I, T3V, L4M, I9L, S12P, Y59H, I98V, T103S
notes: full-length IgG (yeast-expressed); also called Antibody Number 15; Ab# 15
B7: ADI-14447 (antibody, V domains shown)
VH: QVQLVQSGAEMKKPGSSVTVSCKASGVPFTSYTYSWVRQAPGQGLEWMGRVLPVIGSAKYPQKFQGTVTITADKSTSTIYLQLSSLRPEDTAIYFCAGSLLAGYDREFDSWGQGTLVTVSS
VL: DIQMTQSPSSLSASVGDRITITCRASQGISNWLAWYQQKPGKAPKSLIYEASTLQSGVSSRFSGSGSGTHFTLTIASLQPEDFATYYCQQYYIYPLTFGGGTKLEIK
notes: full-length IgG (yeast-expressed); also called Antibody Number 10; Ab# 10
B8: ADI-14507 (antibody, V domains shown)
VH: QITLKESGPTLVKPTQTLTLTCTLSGFSLSTPRMGVGWIRQPPGKALEWLALIDWDDDRRYSPSLKTRLTITKDTSKNQVVLRMTDMDPVDTGTYYCVHSDVYTTGGYYLYYFDYWGQGTLVTVSS
VL: DIQVTQSPSSLSASVGDRVTITCRASQTIPSYLNWYQHKPGKAPQLLIYAASNLRSGVPPRFRGSGSGTDFTLTVSSLQPEDFATYFCQQSYSSPYTFGQGTKLEIK
notes: full-length IgG (yeast-expressed); also called Antibody Number 68; Ab# 68
B9: ADI-14449 (antibody, V domains shown)
VH: EVQLVESGGDLVKPGGSLRLSCEGSGFIFPNAWMSWVRQAPGKGLEWVGRIKSNTDGGTTDYGAPVKGRFTISRDDSTNTMYLHMNSLKTEDTAVYFCSTGPPYKYFDETGYSVVDYWGQGTLVTVSS
VL: SYELTQPPSASGTPGQRVIISCSGSTSNSGYNYFYWYQQRPGTAPKLLIYGSDQRPSGVPDRFSGSQSGPSASLAISGLRSEDEAHYYCAAWDDNLSGPVFGGGTKLTVL
notes: full-length IgG (yeast-expressed); also called Antibody Number 12; Ab# 12
B10: ADI-14504 (antibody, V domains shown)
VH: EVQLVESGGGLVQPGGSLRLSCAASGFPFSRYNMNWVRQAPGKGLEWVSYISSGSRSIYYADSVKGRFTISRDNAKNSLYLQMNSLRAEDTAVYYCARDLSGSPAYSGSWVWGQGTLVTVSS
VL: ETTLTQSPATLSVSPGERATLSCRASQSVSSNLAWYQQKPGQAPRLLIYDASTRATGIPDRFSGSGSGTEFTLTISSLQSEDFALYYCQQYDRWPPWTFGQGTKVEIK
notes: full-length IgG (yeast-expressed); also called Antibody Number 65; Ab# 65
B11: ADI-14506 (antibody, V domains shown)
VH: QVQLVQSGAEVKKPGSSVKVSCKVAGGSFSNYAIAWLRQAPGQGLEWMGGIIPAFNRAMYARKFQDRVTITAYASTTTAYLDITGLRSEDTALYYCARPAGDFGDLKWVRSPFDYWGQGTLITVSS
VL: DIVMTQTPGTLSVSPGERATLSCRASQDVGINLAWYQQKPGQAPRLLIYGASTRATDVPAKFSGSGSGTDFTLTISSLQSEDFGVYYCQEYNDWPPQLSFGPGTKVDIK
notes: full-length IgG (yeast-expressed); also called Antibody Number 67; Ab# 67
B12: ADI-14511 (antibody, V domains shown)
VH: EVQLLESGAEVKKPGSSVKVSCKVAGGTFSDYAISWVRQAPGQGLEYLGGIIPAFKRAMYPRKFQDRVTITADESTSTAYMELRGLRSEDTALYYCARPAGDFGDLKWLRSPFDYWGQGTLVTVSS
VL: B11 VL with M4L, T7S, G9A, Q27E, D28G, V58I, K61R, G84A, E90Q, S99T
notes: full-length IgG (yeast-expressed); also called Antibody Number 72; Ab# 72
B13: ADI-14450 (antibody, V domains shown)
VH: QVQLVQSGGGLVKPGGSRRLACAASGFIFRNAWMSWVRQAPGKGLEWVGRIKRTSEGGSVDYATPVQGRFSISRDDSRNTLYLQMHSLAPDDTAVYYCSTGPPYSYFDSTGYSVVDYWGQGTLVTVSS
VL: QSVLTQPPSASGTPGQRVTISCSASSSNIGDNYFYWYQQLPGKAPTLLMYGSDQRSSGVPDRFSGSQSGTSASLAISGLRSEDEAAYYCAAWDDSLSGPVFGGGTQLTVL
notes: full-length IgG (yeast-expressed); also called Antibody Number 13; Ab# 13
B14: ADI-14523 (antibody, V domains shown)
VH: B13 VH with Q1E, Q6E, R18L, A21S, H86N, A89E, P90T, T110S
VL: B13 VL with A86D, Q106K
notes: full-length IgG (yeast-expressed); also called Antibody Number 83; Ab# 83
B15: ADI-14512 (antibody, V domains shown)
VH: EVQLVESGAEVKKPGSSVKVSCKVVGGSFSNYGISWVRQAPGQGPEWMGGIIPAFKTAKYAKKFEDRVTITADESTSTAYMEVSGLRSDDTALYYCARPERDFGHLKWLRSPFDYWGQGTLVTVSS
VL: ETTLTQSPATLSVSPGERVTLSCRASQGVSINLAWYQQKPGQAPRLLIYGASTRATDIPARFSGSGSGTDFTLTISSLQSEDFAVYYCQQYNDWPPQLTFGPGTKVEIK
notes: full-length IgG (yeast-expressed); also called Antibody Number 73; Ab# 73
B16: ADI-14513 (antibody, V domains shown)
VH: QVQLVQSGSEVKRPGSSVKVSCKASGVALTTVAVNWVRQVPGQGPEWIGGILIGFGKVRQAQKFENRVTFTADASRNTAYMELSGLRSEDTAVYYCAIIDPQDCTRASCFWVNWLAPWGHGTLVTVSS
VL: DIRVTQSPGTLTLSPGERASLSCRASESILNGNLAWYQQKPGQAPRLLIYAASSRATDIPDRFSGSGSGTDFTLTISRLEPQDFAVYYCQQYGSAPITFGQGTRLEIK
notes: full-length IgG (yeast-expressed); also called Antibody Number 74; Ab# 74
B17: ADI-14445 (antibody, V domains shown)
VH: EVQLLESGAVMKRPGSSVRVSCRASGVTLTTVSVNWVRQVPGQGPEWIGGILIGFGKVRQAQKFENRVTLTADASRNTAYMELSGLTSDDTAVYYCAIIDPQDCTRASCFWVNWLDPWGQGTLVTVSS
VL: B16 VL with V4M, S20T, E27Q, N31S, Y50S, S54T, S77T, G93D
notes: full-length IgG (yeast-expressed); also called Antibody Number 8; Ab# 8

Residue numbers refer to the chain shown, from its start.

One experiment has as its target RSV F protein of recombinant mKate-RSV, subtype B (18537) (Respiratory syncytial virus subtype B …, UniProt P13843 26-574). Kind of experiment: cell-based or functional assay.
With B1, the “Neut IC50 subtype B” value was greater than 10 µg/mL.
Same read-out and setting: for B2 the value was 6 µg/mL; for B3, 0.552 µg/mL; for B4, 4.12 µg/mL.
With B5, the “Neut IC50 subtype B” value is 0.187 µg/mL.
On the same count and under the same terms, for B6 the value was 0.157 µg/mL; for B7, 0.372 µg/mL; for B8, 0.173 µg/mL.
The same measure, in the same setting: with B9 the figure was 0.182 µg/mL; with B10, 13.4 µg/mL; with B11, 6.25 µg/mL.
On the same count and under the same terms, with B12 the figure was 7.04 µg/mL; with B13, 0.315 µg/mL.
Turning to B14, the “Neut IC50 subtype B” value amounted to 0.151 µg/mL.
Same read-out and setting: with B15 the figure was greater than 10 µg/mL; with B16, 2.2 µg/mL.
On the same count and under the same terms, for B17 the value was 1.21 µg/mL.

The target of a further experiment is RSV F protein of recombinant mKate-RSV, subtype A (strain A2) (Respiratory syncytial virus subtype A …, UniProt P03420 26-574). Kind of experiment: cell-based or functional assay.
Consider B1, for which the “Neut IC50 subtype A” value was greater than 10 µg/mL.
On the same count and under the same terms, for B2 the value was 6.05 µg/mL; for B3, 0.415 µg/mL; for B4, greater than 10 µg/mL.
Still for that read-out and setting: with B5 the figure was 0.091 µg/mL; with B6, 0.076 µg/mL.
The same measure, in the same setting: with B7 the figure was 0.143 µg/mL; with B8, 0.319 µg/mL.
As to B9, the “Neut IC50 subtype A” value was found to be 0.193 µg/mL.
Still for that read-out and setting: with B10 the figure was 2.81 µg/mL; with B11, greater than 10 µg/mL; with B12, greater than 10 µg/mL.
Take B13: the “Neut IC50 subtype A” value was 0.195 µg/mL.
Same read-out and setting: for B14 the value was 0.239 µg/mL; for B15, greater than 10 µg/mL.
For the molecule B16, the “Neut IC50 subtype A” value is 4.81 µg/mL.
Turning to B17, the “Neut IC50 subtype A” value was greater than 10 µg/mL.

For the next experiment, the target named is T1, RSV F ectodomain stabilized in the postfusion conformation (F ΔFP), subtype B (Respiratory syncytial virus subtype B, UniProt P13843 26-109; P13843 147-524).
T1 construct: extracellular domain; trimer; also called Postfusion subtype B; postF subtype B
Kind of experiment: BLI, IgG on AHQ sensor, 100 nM antigen. In general terms: Biolayer interferometry detects binding as a change in optical thickness at a sensor tip.
The molecule B1 gave a dissociation constant Kd of 0.619 nM.
On the same count and under the same terms, for B2 the value was 0.771 nM.
The same measure, in the same setting: for B3 the value was 0.127 nM; for B4, 16.2 nM; for B5, 0.137 nM.
Still for that read-out and setting: for B6 the value was 0.139 nM; for B7, 0.271 nM; for B8, 0.413 nM.
On to B9, for which the affinity, expressed as Kd, was 0.462 nM.
Still for that read-out and setting: with B10 the figure was 0.52 nM; with B11, 24.5 nM; with B12, 1.25 nM.
The same measure, in the same setting: for B13 the value was 0.142 nM; for B14, 0.131 nM.
Still for that read-out and setting: with B15 the figure was 0.587 nM; with B16, 0.962 nM.
Molecule B17 yielded a Kd of 15.2 nM.

The target of the next experiment is T2, RSV F ectodomain stabilized in the postfusion conformation (F ΔFP), subtype A (Respiratory syncytial virus subtype A, UniProt P03420 26-109; P03420 147-524).
T2 construct: extracellular domain; trimer; furin-cleaved; also called Postfusion subtype A
Nature of the experiment: BLI, IgG on AHQ sensor, 100 nM antigen.
As for B1, the Kd came to 0.783 nM.
Still for that read-out and setting: with B2 the figure was 0.826 nM.
Same read-out and setting: with B3 the figure was 0.714 nM.
Same read-out and setting: with B4 the figure was 5.16 nM; with B5, 0.213 nM; with B6, 0.217 nM.
Molecule B7 returned a Kd of 0.339 nM.
Still for that read-out and setting: for B8 the value was 0.266 nM; for B9, 0.204 nM; for B10, 0.583 nM.
On to B11, for which the Kd amounted to 13.1 nM.
As for B12, the dissociation constant (Kd) turned out to be 0.988 nM.
Still for that read-out and setting: with B13 the figure was 0.227 nM; with B14, 0.192 nM; with B15, 2.67 nM.
Same read-out and setting: with B16 the figure was 1.21 nM; with B17, 4.92 nM.

Broadly, the Kd is the free concentration of one partner at which half of the binding sites on the other are occupied at equilibrium, for simple one-to-one binding.

(Values after US20250313612A1 (Adimab, published 2025).)
